Reference: article PMC10377036, “Biological Recognition-Based Electrochemical Aptasensor for Point-of-Care Detection of cTnI”

Target: cardiac troponin I (cTnI) (UniProt P19429 2-210)
Assay: electrochemical aptasensor (CV, SWV); 50 ng/mL cTnI in CV feasibility test; electrode blocked with MCH; sensor LOD 8.46 pg/mL, linear range 10 pg/mL-100 ng/mL (not a Kd); SWV in PBS (0.01 M PB, 150 mM NaCl, pH 7.4); 10 uL cTnI incubated on electrode 10 min at room temperature
Settings: protein: commercial; label: methylene blue; single strand

Chain of cardiac troponin I (cTnI) (P19429 2-210): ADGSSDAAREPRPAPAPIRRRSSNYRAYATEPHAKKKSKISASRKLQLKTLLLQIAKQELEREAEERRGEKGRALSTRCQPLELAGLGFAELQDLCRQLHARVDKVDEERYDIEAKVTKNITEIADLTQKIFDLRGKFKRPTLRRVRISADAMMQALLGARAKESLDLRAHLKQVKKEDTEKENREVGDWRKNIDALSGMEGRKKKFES

## CGTGCAGTACGCCAACCTTTCTCATGCGCTGCCCCTCTTA (ssDNA, 5' thiol (SH); 3' methylene blue (MB)) [Apt (MB-Apt-SH)]
  binding result: binds
